Experimental findings from patent US20050123549A1 (IMMUNOGEN, published 2005) are described below.

Experiment [1] deals with T1, Muc1 mucin carrying the CA6 sialoglycotope (human, UniProt P15941 24-1255, sialylated O-linked carbohydrate carrying the CA6 epitope; positions not stated).
T1 construct: whole, on cells; Target of DS6 on CA6-positive human cell lines (flow cytometry) and in their lysates (dot blots, immunoprecipitation); also called CA6 antigen; DS6 antigen
The experiment can be described thus: flow cytometry on MCF-7 cells, apparent Kd. As for the experimental part: (§1) Human cell lines were obtained from the American Type Culture Collection (ATCC) with the exception of OVCAR5 (Kearse et al., Int. J. Cancer 88(6):866-872 (2000)), OVCAR8 and IGROV1 cells (M. Seiden, Massachusetts General Hospital). All cells were grown in RPMI 1640 supplemented with 4 mM L-glutamine, 50 U/ml penicillin, 50 μg/ml streptomycin (Cambrex Bio Science, Rockland, Me.) and 10% v/v fetal bovine serum (Atlas Biologicals, Fort Collins, Colo.), referred hereafter as culture media. Cells were maintained in a 37° C., 5% CO₂ humidified incubator.
(§2) Cells ([…]) were incubated, on ice for 3-4 h, with serially diluted concentrations of the DS6 antibody prepared in FACS buffer (2% goat serum, RPMI) into 96-well plates. The cells were spun down in a table top centrifuge at 1500 rpm for 5 min at 4° C. After removing the media, the wells were then refilled with 150 μl of FACS buffer. The wash step was then repeated. FITC-labeled goat anti-mouse IgG (Jackson Immunoresearch) was diluted 1:100 to FACS buffer and incubated with the cells for 1 h on ice. The plate was covered in foil to prevent photobleaching of the signal. After two washes, the cells were fixed with 1% formaldehyde and analyzed on a flow cytometer.

The target in experiment [2] is T1, Muc1 mucin carrying the CA6 …. The experiment can be described thus: flow cytometry on ZR-75-1 cells, apparent Kd.
Experiment [3] shares this target. The experiment can be described thus: flow cytometry on HeLa cells.
Experiment [4] shares this target. The experiment in a line: flow cytometry on KB cells, apparent Kd.
Experiment [5] has the same target. The experiment in a line: flow cytometry on WISH cells, direct binding.
Experiment [6] shares this target. The experiment in a line: flow cytometry on WISH cells, apparent Kd.
The target is the same in experiment [7]. The experiment in a line: flow cytometry on KB cells, apparent Kd. This is another data set of the same source.
The target is the same in experiment [8]. The experiment in a line: flow cytometry on HPAC cells, apparent Kd. As for the experimental part:
as §1, §2

For experiment [9] the target is unchanged. The experiment can be described thus: flow cytometry on Hs766T cells, apparent Kd.
The target is the same in experiment [10]. The experiment can be described thus: flow cytometry on OVCAR5 cells, apparent Kd. As for the experimental part:
as §1, §2

Experiment [11] has the same target. The experiment can be described thus: flow cytometry on BxPC-3 cells, apparent Kd. As for the experimental part:
as §1, §2

For experiment [12] the target is unchanged. The experiment can be described thus: flow cytometry on ZR-75-1 cells, apparent Kd. As for the experimental part: as §1, §2
This is another data set of the same source.

For experiment [13] the target is unchanged. The experiment can be described thus: flow cytometry on HPAF-II cells, apparent Kd. As for the experimental part: as §1, §2
The target is the same in experiment [14]. The experiment can be described thus: flow cytometry on OVCAR5 cells, apparent Kd. As for the experimental part: as §2
The source holds these as a separate data set.

The target is the same in experiment [15]. The experiment can be described thus: flow cytometry on T-47D cells, apparent Kd. As for the experimental part: as §2
Experiment [16] shares this target. The experiment in a line: flow cytometry on T-47D cells, apparent Kd. As for the experimental part: as §1, §2
The source holds these as a separate data set.

The target is the same in experiment [17]. The experiment in a line: flow cytometry on MCF7 cells, apparent Kd.
The target is the same in experiment [18]. The experiment can be described thus: flow cytometry on PC-3 cells, apparent Kd. As for the experimental part: as §1, §2
Experiment [19] has the same target. The experiment can be described thus: flow cytometry on CAMA-1 cells, apparent Kd. As for the experimental part:
as §1, §2

Experiment [20] has the same target. The experiment in a line: flow cytometry on BT-483 cells, apparent Kd. As for the experimental part:
as §2

For experiment [21] the target is unchanged. The experiment in a line: cell-based or functional assay.

B1: murine DS6 anti-CA6 monoclonal antibody (antibody, IgG1, V domains shown)
VH: QAYLQQSGAELVRSGASVKMSCKASGYTFTSYNMHWVKQTPGQGLEWIGYIYPGNGATNYNQKFKGKATLTADPSSSTAYMQISSLTSEDSAVYFCARGDSVPFAYWGQGTLVTVSA
VL: QIVLTQSPAIMSASPGEKVTITCSAHSSVSFMHWFQQKPGTSPKLWIYSTSSLASGVPARFGGSGSGTSYSLTISRMEAEDAATYYCQQRSSFPLTFGAGTKLELKR
notes: Whole murine monoclonal IgG from the DS6 hybridoma (ATCC PTA-4449); the 3' heavy chain cloning primer was BamIgG1 and the light chain primer was kappa; also called DS6 antibody; muDS6
Consider B1, for which the Kd in experiment [1] was 2.89 nM; in experiment [2], 4.3 nM; in experiment [3] it was 0.62 nM; in experiment [4] it was 1.11 nM; in experiment [5], 1.93 nM; in [6], 2.38 nM. Also, the Kd in [7] was 0.111 nM; in experiment [8] it was 23.5 nM; in experiment [9], 2.32 nM; in experiment [10], 1.47 nM; in experiment [11], 5.26 nM; in [12], 4.3 nM. In addition, the Kd in experiment [13] was determined as 2.81 nM; in [14], 1.47 nM; in experiment [15] it was 3.42 nM; in [16], 3.42 nM; in experiment [17], 2.89 nM; in experiment [18] it was 0.136 nM. Besides, the Kd stood at 2.33 nM in [19] and 13.7 nM in experiment [20]. Besides, the “indirect cell viability assay, DS6 with anti-mouse IgG (H+L) DM1 conjugate, Caov-3 cells, IC50” value in experiment [21] is 0.425 nM.
